Data: publication PMC6985287, “Novel Immunomodulatory Proteins Generated via Directed Evolution of Variant IgSF Domains” (Frontiers in Immunology, 2019)

Target: T1, wild type human ICOSL-Fc fusion protein (human, UniProt O75144 19-256)
T1 construct: ICOS ligand (ICOSL), human, extracellular domain (ECD); secreted with the human immunoglobulin VH5-51 signal peptide; Fc dimer; also called WT ICOSL; WT ICOSL-Fc; source: Expi293F, transient expression, purified (Protein A, SEC); not shown: Fc (IgG1, lacking effector function), C-terminal, kept
T1 sequence (looked up): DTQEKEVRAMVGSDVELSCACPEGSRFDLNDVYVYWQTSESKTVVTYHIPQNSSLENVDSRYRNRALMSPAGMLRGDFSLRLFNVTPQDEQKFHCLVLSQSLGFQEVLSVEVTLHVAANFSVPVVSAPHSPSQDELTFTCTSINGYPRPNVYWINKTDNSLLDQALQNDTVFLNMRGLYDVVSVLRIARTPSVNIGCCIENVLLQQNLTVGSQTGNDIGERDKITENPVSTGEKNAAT
Experiment: BLI; ForteBio Octet QKe; receptor-Fc loaded on the sensor (Protein A sensors in the methods, anti-human capture AHC sensors in the table's footnote); ICOSL-Fc proteins in four-point titrations (100, 50, 25, 12.5 nM); global 1:1 fit; both partners Fc dimers, KD includes avidity
Settings: both partners purified

B1: human recombinant ICOS-Fc fusion protein (Fc fusion, UniProt Q9Y6W8 21-140, looked up)
chain: EINGSANYEMFIFHNGGVQILCKYPDIVQQFKMQLLKGGQILCDLTKTKGSGNTVSIKSLKFCHSQLSNNSVSFFLYNLDHSHANYYFCNLSIFDPPPFKVTLTGGYLHIYESQLCCQLK
notes: Inducible Costimulator (ICOS), human, soluble Fc fusion; also called soluble ICOS-Fc; source: bought: R&D Systems
Kd: 0.883 nM
